Assay results reported in publication PMC6441110, “A novel 3-hydroxypropionic acid-inducible promoter regulated by the LysR-type transcriptional activator protein MmsR of Pseudomonas denitrificans” (Scientific Reports, 2019).

How the values were obtained:
[1] = target: MmsR, LysR-type transcriptional activator protein of Pseudomonas denitrificans, tagged with six histidine residues at the C-terminus (Pseudomonas denitrificans ATCC 13867); assay: native gel or EMSA + SEC; native PAGE and/or gel filtration of purified His-tagged MmsR at the high concentration of 550 nM; monomer to dimer
MmsR = target: T1, MmsR (Pseudomonas denitrificans (nom. rej.), UniProt A0A9X7MYS1); assay: EMSA with mmsA promoter DNA, purified MmsR with and without inducer; conditions: 25 mM 3-HP; 40 nM DNA probe; pH 7.4, 750 mM KCl; effector of DNA binding (inducer)
T1 construct: gene F1C79_09590; cell rows: native chromosomal MmsR; gene divergent from mmsA
T1 sequence (A0A9X7MYS1 1-298): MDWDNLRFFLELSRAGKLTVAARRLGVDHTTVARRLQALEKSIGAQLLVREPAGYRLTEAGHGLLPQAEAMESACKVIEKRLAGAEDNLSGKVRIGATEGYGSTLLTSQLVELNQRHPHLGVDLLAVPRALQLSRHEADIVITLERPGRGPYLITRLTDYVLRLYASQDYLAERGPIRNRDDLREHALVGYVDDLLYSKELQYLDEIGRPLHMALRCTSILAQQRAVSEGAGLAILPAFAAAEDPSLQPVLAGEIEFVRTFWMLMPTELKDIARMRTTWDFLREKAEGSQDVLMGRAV

[2] = target: T2, MmsR (LysR-type transcriptional activator, C4-LysR) (Pseudomonas denitrificans ATCC 13867, UniProt A0A9X7MYS1 1-298); assay: EMSA; no 3-HP; 50 mM Tris pH 7.4, 750 mM KCl (1X as printed), 0.5 mM DTT, 0.5 mM EDTA, room temperature; EMSA 40 nM DNA, 0-48.5 nM MmsR, 30 min; footprinting 230 nM DNA, 0-1.2 uM MmsR; conditions: protein: recombinant; tags: C-terminal His6 (pET30b+); chain copies: 2; label: none (SYBR Green stain); blunt
T2 sequence: T1 sequence (A0A9X7MYS1 1-298)

[3] = target: T2, MmsR (LysR-type transcriptional …); assay: EMSA; no 3-HP; stronger shift than F1M2; 50 mM Tris pH 7.4, 750 mM KCl (1X as printed), 0.5 mM DTT, 0.5 mM EDTA, room temperature; EMSA 40 nM DNA, 0-48.5 nM MmsR, 30 min; footprinting 230 nM DNA, 0-1.2 uM MmsR; conditions: protein: recombinant; tags: C-terminal His6 (pET30b+); chain copies: 2; label: none (SYBR Green stain); blunt
[4] = target: T2, MmsR (LysR-type transcriptional …); assay: DNase I footprinting; no 3-HP; O1 more protected than O2; 50 mM Tris pH 7.4, 750 mM KCl (1X as printed), 0.5 mM DTT, 0.5 mM EDTA, room temperature; EMSA 40 nM DNA, 0-48.5 nM MmsR, 30 min; footprinting 230 nM DNA, 0-1.2 uM MmsR; conditions: protein: recombinant; tags: C-terminal His6 (pET30b+); chain copies: 2; blunt

MmsR, LysR-type transcriptional activator protein of Pseudomonas denitrificans, tagged with six histidine residues at the C-terminus (natural protein)
stoichiometry N [1]: 2

O=C(O)CCO [compound 1, 3-hydroxypropionic acid]
EMSA with mmsA promoter DNA, purified MmsR with and without inducer (MmsR): 3-HP promotes the binding affinity between MmsR and the PmmsA promoter

B1: F12 (O1 and O2 intact) (dsDNA)
DNA 1: GTCAGCCTCAGCGCACCTCGAATGTGCAAAAACGCAGACCATACTTGCACATCACCGCATTGAGTACATCAAAAATGCACTGTTAGGATCGATCCAGACAACAAAAAAGCCACAGGCTGGGAGAATCCCG
DNA 2: CGGGATTCTCCCAGCCTGTGGCTTTTTTGTTGTCTGGATCGATCCTAACAGTGCATTTTTGATGTACTCAATGCGGTGATGTGCAAGTATGGTCTGCGTTTTTGCACATTCGAGGTGCGCTGAGGCTGAC
binding result [2]: binds

B2: F12M (O1 intact, O2 mutant) (dsDNA)
DNA 1: GTCAGCCTCAGCGCACCTCGAATGTGCAAAAACGCAGACCATACTTGCACATCACCGCATTGAGTACATCAATCCTTGCTTGTTAGGATCGCGCCCAGGCACAAAAAAGCCACAGGCTGGGAGAATCCCG
DNA 2: CGGGATTCTCCCAGCCTGTGGCTTTTTTGTGCCTGGGCGCGATCCTAACAAGCAAGGATTGATGTACTCAATGCGGTGATGTGCAAGTATGGTCTGCGTTTTTGCACATTCGAGGTGCGCTGAGGCTGAC
binding result [3]: binds

B3: 169 bp footprinting fragment (dsDNA)
DNA 1: CCGCAGGTTGTCCCAGTCCATGTCAGCCTCAGCGCACCTCGAATGTGCAAAAACGCAGACCATACTTGCACATCACCGCATTGAGTACATCAAAAATGCACTGTTAGGATCGATCCAGACAACAAAAAAGCCACAGGCTGGGAGAATCCCGATGACCGCAACTGCCCCG
DNA 2: CGGGGCAGTTGCGGTCATCGGGATTCTCCCAGCCTGTGGCTTTTTTGTTGTCTGGATCGATCCTAACAGTGCATTTTTGATGTACTCAATGCGGTGATGTGCAAGTATGGTCTGCGTTTTTGCACATTCGAGGTGCGCTGAGGCTGACATGGACTGGGACAACCTGCGG
binding result [4]: binds
